These results are taken from the supplement of paper PMC9112550, “Optimization of the antimicrobial peptide Bac7 by deep mutational scanning” (BMC Biology, 2022).

In the data set the test system is Escherichia coli TOP10. The data set can be described thus: shrunken log2 fold change of peptide-encoding DNA abundance (4.5 h post-induction vs induction); higher = less antimicrobial activity (less host growth inhibition). The following applies: time post-induction: 4.5 h; library: site-saturation at positions 5, 18, 19, 20.
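Also: peptides expressed intracellularly from a pBAD plasmid library in pooled LB shake-flask culture, induced with 0.3% L-arabinose, DNA abundance read by NGS, three biological replicates, DESeq2 with apeglm shrinkage.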

In the case of RRIRVRPPRLPRPRPRPDQPPRP, the “shrunken log2 fold change” value came to 0.166.

On to RRIRCRPPRLPRPRPRPFNYPRP, for which the “shrunken log2 fold change” value was -0.836. Regarding RRIRHRPPRLPRPRPRPPAVPRP, the “shrunken log2 fold change” value amounted to 0.373. Take RRIRNRPPRLPRPRPRPMHTPRP: the “shrunken log2 fold change” value amounted to 0.0242. Consider RRIRDRPPRLPRPRPRPEDQPRP, for which the “shrunken log2 fold change” value turned out to be 0.0219. On to RRIRARPPRLPRPRPRPRNIPRP, for which the “shrunken log2 fold change” value is 0.157. For the sequence RRIRMRPPRLPRPRPRPWYFPRP, the “shrunken log2 fold change” value is -0.282.

RRIRQRPPRLPRPRPRPGSCPRP: the “shrunken log2 fold change” value amounted to 0.192.

For the sequence RRIRYRPPRLPRPRPRPSGWPRP, the “shrunken log2 fold change” value was -0.00312.

Consider RRIRRRPPRLPRPRPRPSIRPRP, for which the “shrunken log2 fold change” value was -0.219.

Turning to RRIRDRPPRLPRPRPRPLTEPRP, the “shrunken log2 fold change” value came out at 0.236. With RRIRMRPPRLPRPRPRPHAEPRP the figure was 2.8; with RRIRQRPPRLPRPRPRPHTHPRP, -0.342; with RRIRCRPPRLPRPRPRPIGMPRP, -0.121.

For the sequence RRIRHRPPRLPRPRPRPTIHPRP, the “shrunken log2 fold change” value is -0.552. On to RRIRMRPPRLPRPRPRPTKFPRP, for which the “shrunken log2 fold change” value came out at 0.339. RRIRIRPPRLPRPRPRPISGPRP: the “shrunken log2 fold change” value was -0.0415. Regarding RRIRERPPRLPRPRPRPHIWPRP, the “shrunken log2 fold change” value came to 0.00885. Consider RRIRCRPPRLPRPRPRPSEAPRP, for which the “shrunken log2 fold change” value is 0.125. Then RRIRKRPPRLPRPRPRPRTLPRP, with 0.454. Regarding RRIRDRPPRLPRPRPRPMVQPRP, the “shrunken log2 fold change” value is -0.00146. With RRIRWRPPRLPRPRPRPANNPRP the figure was -0.205; with RRIRARPPRLPRPRPRPRVNPRP, 0.631; with RRIRMRPPRLPRPRPRPKCSPRP, -0.0186. Consider RRIRDRPPRLPRPRPRPPEKPRP, for which the “shrunken log2 fold change” value worked out at 0.106. In the case of RRIRTRPPRLPRPRPRPNHAPRP, the “shrunken log2 fold change” value worked out at 0.176. Regarding RRIRERPPRLPRPRPRPCEFPRP, the “shrunken log2 fold change” value is -0.283. On to RRIRERPPRLPRPRPRPIANPRP, for which the “shrunken log2 fold change” value amounted to 0.158. With RRIRNRPPRLPRPRPRPVDDPRP, the “shrunken log2 fold change” value was 0.0318.

For the sequence RRIRRRPPRLPRPRPRPEYVPRP, the “shrunken log2 fold change” value was 0.0703. For the sequence RRIRMRPPRLPRPRPRPMSHPRP, the “shrunken log2 fold change” value was -0.121. RRIRWRPPRLPRPRPRPSNWPRP: the “shrunken log2 fold change” value turned out to be 0.135.

Turning to RRIRVRPPRLPRPRPRPSDEPRP, the “shrunken log2 fold change” value was -0.463. In the case of RRIRRRPPRLPRPRPRPAKMPRP, the “shrunken log2 fold change” value was found to be 0.113. In the case of RRIRDRPPRLPRPRPRPKVFPRP, the “shrunken log2 fold change” value worked out at 0.0612. In the case of RRIRIRPPRLPRPRPRPWWNPRP, the “shrunken log2 fold change” value was -0.0623.

As to RRIRRRPPRLPRPRPRPGTDPRP, the “shrunken log2 fold change” value worked out at 0.0719. Regarding RRIRSRPPRLPRPRPRPCCTPRP, the “shrunken log2 fold change” value was -0.0345. For the sequence RRIRGRPPRLPRPRPRPEEQPRP, the “shrunken log2 fold change” value was -0.00213. In the case of RRIRQRPPRLPRPRPRPVWLPRP, the “shrunken log2 fold change” value was found to be 0.2. As for RRIRIRPPRLPRPRPRPWHSPRP, the “shrunken log2 fold change” value was -0.383. As to RRIRSRPPRLPRPRPRPGHSPRP, the “shrunken log2 fold change” value turned out to be 0.0297. With RRIRVRPPRLPRPRPRPDITPRP, the “shrunken log2 fold change” value was -0.305. With RRIRSRPPRLPRPRPRPQVVPRP the figure was -0.144.

For RRIRCRPPRLPRPRPRPVQDPRP, the “shrunken log2 fold change” value stood at 0.0523. For RRIRTRPPRLPRPRPRPSFCPRP, the “shrunken log2 fold change” value was -0.296. For the sequence RRIRYRPPRLPRPRPRPPCLPRP, the “shrunken log2 fold change” value is -0.288. As to RRIRCRPPRLPRPRPRPIANPRP, the “shrunken log2 fold change” value was found to be 0.0422. In the case of RRIRGRPPRLPRPRPRPERPPRP, the “shrunken log2 fold change” value came to 1.28.

On to RRIRKRPPRLPRPRPRPAFEPRP, for which the “shrunken log2 fold change” value turned out to be 0.158.

Consider RRIRWRPPRLPRPRPRPYEGPRP, for which the “shrunken log2 fold change” value is -0.874. Turning to RRIRNRPPRLPRPRPRPRWGPRP, the “shrunken log2 fold change” value was -0.0125. Then RRIRRRPPRLPRPRPRPHALPRP, with 0.0116. Then RRIRYRPPRLPRPRPRPNFAPRP, with 0.137. Take RRIRDRPPRLPRPRPRPMTVPRP: the “shrunken log2 fold change” value was determined as 0.047. RRIRPRPPRLPRPRPRPRMQPRP: the “shrunken log2 fold change” value was 1.48. Turning to RRIRVRPPRLPRPRPRPIHIPRP, the “shrunken log2 fold change” value was -1.11.

For RRIRFRPPRLPRPRPRPQGGPRP, the “shrunken log2 fold change” value was found to be 0.0852.

Take RRIRGRPPRLPRPRPRPHDWPRP: the “shrunken log2 fold change” value came to 0.46. Turning to RRIRRRPPRLPRPRPRPELAPRP, the “shrunken log2 fold change” value was 0.927. Then RRIRFRPPRLPRPRPRPNRLPRP, with -0.121; and RRIRKRPPRLPRPRPRPVPKPRP, with 0.289.

For RRIRARPPRLPRPRPRPRHWPRP, the “shrunken log2 fold change” value was found to be 0.511. With RRIRCRPPRLPRPRPRPDFEPRP the figure was -0.0276. As to RRIRQRPPRLPRPRPRPVVQPRP, the “shrunken log2 fold change” value was -0.0933. Turning to RRIRIRPPRLPRPRPRPPFIPRP, the “shrunken log2 fold change” value was -0.755. RRIRARPPRLPRPRPRPFPVPRP: the “shrunken log2 fold change” value was -0.0583. Take RRIRDRPPRLPRPRPRPTHFPRP: the “shrunken log2 fold change” value is -0.0613. For RRIRDRPPRLPRPRPRPAKCPRP, the “shrunken log2 fold change” value stood at 0.124. As for RRIRARPPRLPRPRPRPMDTPRP, the “shrunken log2 fold change” value is 0.143.

Regarding RRIRMRPPRLPRPRPRPDDGPRP, the “shrunken log2 fold change” value came out at 0.038.

Consider RRIRERPPRLPRPRPRPKAYPRP, for which the “shrunken log2 fold change” value was -0.00666. With RRIRSRPPRLPRPRPRPCQSPRP, the “shrunken log2 fold change” value was -0.01. Consider RRIRDRPPRLPRPRPRPLNVPRP, for which the “shrunken log2 fold change” value is -0.029.

On to RRIRGRPPRLPRPRPRPLPRPRP, for which the “shrunken log2 fold change” value came to 1.5. With RRIRTRPPRLPRPRPRPMSMPRP the figure was -0.171.

As to RRIRNRPPRLPRPRPRPHMDPRP, the “shrunken log2 fold change” value is -0.384.

As to RRIRGRPPRLPRPRPRPSDLPRP, the “shrunken log2 fold change” value worked out at 0.0731.

For the sequence RRIRTRPPRLPRPRPRPKRMPRP, the “shrunken log2 fold change” value is -0.157. In the case of RRIRHRPPRLPRPRPRPRMQPRP, the “shrunken log2 fold change” value came to 0.183. Then RRIRSRPPRLPRPRPRPAIFPRP, with 0.0447; and RRIRWRPPRLPRPRPRPKIRPRP, with 0.00361. RRIRVRPPRLPRPRPRPRQPPRP: the “shrunken log2 fold change” value is 0.284.

On to RRIRVRPPRLPRPRPRPREAPRP, for which the “shrunken log2 fold change” value worked out at 0.0545. For RRIRIRPPRLPRPRPRPRGNPRP, the “shrunken log2 fold change” value was -0.0419. Then RRIRSRPPRLPRPRPRPSDCPRP, with -0.79; and RRIRQRPPRLPRPRPRPMRRPRP, with 0.225. As for RRIRNRPPRLPRPRPRPMYCPRP, the “shrunken log2 fold change” value was -0.268. RRIRGRPPRLPRPRPRPNCIPRP: the “shrunken log2 fold change” value is 0.247.

Consider RRIRDRPPRLPRPRPRPGLHPRP, for which the “shrunken log2 fold change” value is -6.57e-05.

For RRIRDRPPRLPRPRPRPEWRPRP, the “shrunken log2 fold change” value worked out at 1.08. In the case of RRIRHRPPRLPRPRPRPCGAPRP, the “shrunken log2 fold change” value amounted to 0.0817. Then RRIRNRPPRLPRPRPRPFELPRP, with 0.00621; and RRIRDRPPRLPRPRPRPTNTPRP, with -0.142; and RRIRQRPPRLPRPRPRPSRQPRP, with -0.101. As for RRIRTRPPRLPRPRPRPLWDPRP, the “shrunken log2 fold change” value is -0.0109. With RRIRLRPPRLPRPRPRPHTQPRP the figure was -0.31; with RRIRSRPPRLPRPRPRPCVNPRP, -0.0338. For the sequence RRIRYRPPRLPRPRPRPRTDPRP, the “shrunken log2 fold change” value was -0.0428. Regarding RRIRIRPPRLPRPRPRPVMYPRP, the “shrunken log2 fold change” value was -0.052. Then RRIRYRPPRLPRPRPRPNTLPRP, with -0.704; and RRIRMRPPRLPRPRPRPESEPRP, with 3.39. Take RRIRVRPPRLPRPRPRPTAIPRP: the “shrunken log2 fold change” value came to 0.12. RRIRSRPPRLPRPRPRPETGPRP: the “shrunken log2 fold change” value amounted to 0.105.

Take RRIRGRPPRLPRPRPRPLMSPRP: the “shrunken log2 fold change” value came out at 0.271.

For RRIRGRPPRLPRPRPRPHSWPRP, the “shrunken log2 fold change” value worked out at 0.417. Regarding RRIRNRPPRLPRPRPRPPCSPRP, the “shrunken log2 fold change” value was -0.327. With RRIRNRPPRLPRPRPRPPIPPRP, the “shrunken log2 fold change” value is -0.0646.

For the sequence RRIRLRPPRLPRPRPRPKQEPRP, the “shrunken log2 fold change” value was -0.00888.

For RRIRDRPPRLPRPRPRPAWFPRP, the “shrunken log2 fold change” value was 0.118. Regarding RRIRARPPRLPRPRPRPEHSPRP, the “shrunken log2 fold change” value amounted to 0.244. As for RRIRDRPPRLPRPRPRPGGIPRP, the “shrunken log2 fold change” value was found to be 0.129. Regarding RRIRYRPPRLPRPRPRPTLTPRP, the “shrunken log2 fold change” value was -0.0404. Take RRIRSRPPRLPRPRPRPPACPRP: the “shrunken log2 fold change” value was found to be 0.185.

For the sequence RRIRYRPPRLPRPRPRPVWSPRP, the “shrunken log2 fold change” value is -0.337.

With RRIRNRPPRLPRPRPRPPHGPRP, the “shrunken log2 fold change” value is -0.0913. As to RRIRNRPPRLPRPRPRPHILPRP, the “shrunken log2 fold change” value was -0.106. For the sequence RRIRDRPPRLPRPRPRPKCPPRP, the “shrunken log2 fold change” value was found to be 0.149.

RRIRQRPPRLPRPRPRPWKAPRP: the “shrunken log2 fold change” value was -0.112. Regarding RRIRMRPPRLPRPRPRPTKRPRP, the “shrunken log2 fold change” value turned out to be 0.901. Regarding RRIRMRPPRLPRPRPRPPYTPRP, the “shrunken log2 fold change” value is -0.0678. For the sequence RRIRFRPPRLPRPRPRPANKPRP, the “shrunken log2 fold change” value is -0.546. Then RRIRIRPPRLPRPRPRPYERPRP, with -0.023. Consider RRIRFRPPRLPRPRPRPWFKPRP, for which the “shrunken log2 fold change” value is -0.537. Consider RRIRDRPPRLPRPRPRPWYCPRP, for which the “shrunken log2 fold change” value was -0.137.
